In patent US20250213704A1, “METHOD OF TREATING A CANCER WITH A MULTIVALENT PEPTIDE CONJUGATE” (Valitor, Inc, priority 2022, published 2025):

Tests used:
[1] = system: SK-MEL-28 melanoma tumors; assay: Intratumoral pharmacokinetics, in vivo imaging of Sulfo-Cy7 tagged protein after IT injection, tumor type 1; set-up: species or system athymic nude mice
Method: FIG. 2A-2C show results of intra-tumoral administration in xenografts in mice. […] The intra-tumoral half-lives were calculated using exponential decay fits of region of interest (ROI) radiant efficiency of infrared-tagged treatment peptides over 168 hours. […] The intra-tumoral half-lives were calculated using exponential decay fits of ROI radiant efficiency of infrared-tagged treatment peptides over 264 hours.
Mouse tumor models for evaluating the clearance rate of proteins from solid tumors were used to measure the intratumoral (IT) half-life of MVPs to maximize the parameters for tumor retention. Antibodies tagged using the amine-reactive Sulfo-Cy7 NHS ester (Broadpharm Cat #BP-22541) near-infrared fluorophore by the following method were used. This method was conducted under aseptic conditions. First, the dye was dissolved DMSO at 10 mg/mL concentration. Then, the protein at 5.0-10.0 mg/mL concentration was mixed with 0.1 M sodium bicarbonate at a 3:2 vol:vol ratio. Lastly, the fluorophore was added at a 1:2 protein:fluorophore molar ratio, mixed well, and incubated at room temperature for one hour on a neutator protected from the light by covering with foil. The NHS esters were quenched by adding 1.5 M Tris buffer pH 8.5 at 10% of the reaction volume and mixed on a neutator for another 10 minutes. The tagged protein was purified away from the unreacted fluorophore using a NAP-10 desalting column (illustra Cat #17-0854-01) that was equilibrated with PBS pH 7.0+0.01% Tween-20 according to the manufacturer's directions. The protein concentration and degree of Cy7 labeling was determined by the absorbance at 280 and 750 nm. […]
Tumors were established by injecting 3×10^6 SK-MEL-28 cells mixed 1:1 with Matrigel (Corning Cat #354234) in a 0.1 mL volume subcutaneously into the right flank of 8 week old athymic nude mice (Table 6). The tumor size was monitored until it reached a size of […]. […] When the study concluded, the half-life of each treatment was determined following injection using exponential decay calculations for optical in vivo imaging (Table 7).

[2] = system: MDA-MB-231 breast cancer tumors; set-up: species or system nude mice; details: mouse, in vivo
[3] = biological target: T1, Human VEGF 165 (human, UniProt P15692-4 27-191, Avi tag (as printed under Tags); the tag's sequence and place are not given); assay: BLI (Gator), Avi-tagged human VEGF 165 on the probe, conjugate as analyte, 1:1 global fit; 90.5 kDa CMC, valency 9, 48.41 percent unconjugated peptide
T1 construct: Bought reagent loaded on the BLI probes as ligand; VEGF165 is one isoform of it; also called BLI ligand, Avi tag, R&D Systems AVI-293-050
T1 sequence (P15692 other isoform, or with tags, fused parts or gaps limits assumed): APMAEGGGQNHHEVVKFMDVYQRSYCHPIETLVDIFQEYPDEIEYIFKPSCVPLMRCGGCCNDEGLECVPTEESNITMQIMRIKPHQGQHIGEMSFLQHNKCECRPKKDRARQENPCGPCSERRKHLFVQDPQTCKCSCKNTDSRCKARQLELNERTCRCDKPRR
Method: (§1) Either one or two probes per sample (one for kinetic assay and one for ligand free control if used) were equilibrated in 250 μL BLI buffer (PBS pH 7.4, 0.2% Tween and 0.2% BSA filtered at 0.2 μm) for at minimum 10 min in a Gator Bio Max plate. Ligands were diluted to a fixed concentration of 25-100 nM based on performance in pilot reactions in BLI buffer. Analytes were prepared at the top concentration determined in pilot reactions in BLI buffer and serially diluted 1:3 two to five more times using BLI buffer (Table 3). Black flat-bottom non-coated 96 well plates (Greiner Bio One Cat #655209 or similar) were loaded column-wise with 200 μL of ligand, analyte dilutions and one column of BLI buffer for each column of ligand and analyte. One well in each column of analyte was BLI buffer to be used as a blank for reference subtraction. The sample plate was placed in the Gator on a tilted platform set to 25° C. […] Next, the kinetic reads were started using the step parameters. If a ligand-free control was conducted, when kinetic reads were complete with ligand-loaded probes, the ligand free control was run using new probes that were not loaded with the ligand. The same kinetic assay timing and same sample wells were used that were analyzed with ligand loaded probes.
(§2) When kinetic assay was complete, data was analyzed using the Gator software. […]

[4] = biological target: T1, Human VEGF 165; assay: BLI (Gator), Avi-tagged human VEGF 165 on the probe, conjugate as analyte, 1:1 global fit; 250 kDa CMC, valency 21, 44.37 percent unconjugated peptide
Method: as §1, §2

B1: Conjugate 110: Anti-VEGF DARPin (SEQ ID NO: 1) conjugated to 700 kDa CMC, MP2H linker, valency 20 (conjugate)
chain: SNAGSDLDKKLLEAARAGQDDEVRILMANGADVNARDSTGWTPLHLAAPWGHPEIVEVLLKNGADVNAADFQGWTPLHLAAAVGHLEIVEVLLKYGADVNAQDKFGKTAFDISIDNGNEDLAEILQKAAGGGSGGGSC
modifications: conjugated to 700 kDa CMC via MP2H linker; aVEGF_Gly_Cys DARPin
- IT half-life compared with unconjugated anti-VEGF DARPin and other conjugate (in words) ([1]; mouse, in vivo): longer than that of the unconjugated anti-VEGF DARPin or the peptide conjugated to a 90 kDa CMC
- Intratumoral t1/2 ([1]; mouse, in vivo): 48.7 ± 24.7 h

B2: Unconjugated: Unconjugated Sulfo-Cy7 tagged anti-VEGF DARPin (SEQ ID NO: 1), comparator for the conjugates (protein)
chain: B1 chain
modifications: Sulfo-Cy7 label; aVEGF_Gly_Cys DARPin
- Intratumoral t1/2 [2]: 15.1 ± 9.8 h

B3: Conjugate 101: Anti-VEGF DARPin (SEQ ID NO: 1) conjugated to 700 kDa CMC, MP2H linker, valency 13 (conjugate)
chain: B1 chain
modifications: conjugated to 700 kDa CMC via MP2H linker; aVEGF_Gly_Cys DARPin
- IT half-life compared with unconjugated anti-VEGF DARPin and other conjugate (in words) [2]: longer than that of the unconjugated anti-VEGF DARPin or the peptide conjugated to a 830 kDa hyaluronic acid (HyA)
- Intratumoral t1/2 [2]: 101.2 ± 34.9 h

B4: Conjugate 111: Anti-VEGF DARPin (SEQ ID NO: 1) conjugated to 90 kDa CMC, EMCH linker, valency 34 (conjugate)
chain: B1 chain
modifications: 90 kDa CMC via EMCH linker; aVEGF_Gly_Cys DARPin
- Intratumoral t1/2 ([1]; Tumor type 1 (SK-MEL-28 melanoma xenograft), 40 μL IT injection, exponential decay fit of ROI radiant efficiency over 168 hours): 18.0 ± 3.4 h

B5: Conjugate 109: Anti-VEGF DARPin (SEQ ID NO: 1) conjugated to 830 kDa HyA, MP2H linker, valency 34 (conjugate)
chain: B1 chain
modifications: conjugated to 830 kDa HyA via MP2H linker; aVEGF_Gly_Cys DARPin
- Intratumoral t1/2 [2]: 20.5 ± 7.0 h

B6: Conjugate 114: Anti-VEGF VHH (SEQ ID NO: 8) conjugated to 90.5 kDa CMC, valency 9 (other)
VHH: MQVQLVESGGGLVQPGGSLRLSCAASGFAYSTYSMGWFRQAPGKEREAVATINSGTFRLWYTDSVKGRFTISRDNSKNTLYLQMNSLRPEDTAVYYCAARAWSPYSSTVDAGDFRYWGQGTLVTVSSAEAAAKEAAAKEAAAKAGC
modifications: C-terminal Cys thiol linked through a hydrazide-PEG2-maleimide linker to 90.5 kDa carboxymethyl cellulose
notes: Multivalent peptide-polymer conjugate; valency 9 is the mean molar ratio of peptide to polymer; also called anti-VEGF MVP
- Kd [3]: 0.966 nM

B7: Conjugate 115: Anti-VEGF VHH (SEQ ID NO: 8) conjugated to 250 kDa CMC, valency 21 (other)
VHH: B6 VHH
modifications: C-terminal Cys thiol linked through a hydrazide-PEG2-maleimide linker to 250 kDa carboxymethyl cellulose
notes: Multivalent peptide-polymer conjugate; valency 21 is the mean molar ratio of peptide to polymer; also called anti-VEGF MVP
- Kd [4]: 0.583 nM
